Reference: the nanobody polyreactivity screen of Harvey et al. (2022)

assay: yeast display, Sf9 membrane polyspecificity reagent, FACS + sequencing; frameworks hold sequencing errors
Procedure, shortened: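 Polyreactivity labels are assigned by the sorting gate from which each nanobody was recovered. The gates were low and high (top ~1%), set on anti-HA fluorescence for expression and streptavidin fluorescence for reagent binding. Before sorting, galactose-induced (36–48 hours) yeast display cells were stained for 1 hour at 4 °C with 10% biotinylated, detergent-solubilized Sf9 membrane reagent.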

Row | Sequence | polyreactivity (PSR sort gate)
1 | QVQLVESGGGLVQAGGSLRLSCAASGFTVEKNAMGWYRPAPGNERELVAAITKSGGSTYYADSVKGRFTISRDNAKNTVYLQMNSLKPEDTAVYFCNAPPWSRYYYDLLRHDYWGQGTQVTVSS | low polyreactivity
2 | QVQLVESGGGLVQAGGSLRLSCAASGSTFDTNAMGWYRQAPGKERELVATITSIGGSTYADSVKGRFTISRDNAKNTVYLQMNSLKPEDTAVYYCATDYVEIDYDYDYWGQGTQVTVSS | low polyreactivity
3 | QVQLVESGGGLVQAGGSLRLSCAASGFIFNRNAMGWYRQAPGKERELVAAITWSASRTYYADSVKGRFTISRDNAKNTVYLQMNSLKPEDTAVSYCAARRYRGYDYWGQGTQVTVSS | high polyreactivity
4 | QVQLVESGGRLVQAGGSLRLSCAASGRILYVNNMGWYRQAPGKERELVAGITSRVGSTYYADSVKGRFTISRDNAKNTVYLQMNSLKPEDSAVYYCNARSTWRHRRDQVDFDYWGQGTQVSVSS | low polyreactivity
5 | QVQLVESGGGLVQAGGSLRLSCAASGRTLWGNAMGWYRQAPGKERELVAAISRSGYTNYADSVKGRFTISRDNAKNTVYLLMNRLKPEDTAVYYCNARSTRSRTYQSYDYWGQGTQVTVSS | high polyreactivity
6 | QVQLVESGGGLVQAGGSLRLSCAASGSTFTSNAMGWYREAPGKEREFVAAISVGGGITYYADSVKGRFTISRDNAKNTVSLQMNSLKPEDTAVYYCAADGEYPHSEDFEYWGQGTQVNVSS | low polyreactivity
7 | QVQLVESVGGLVQAGGSLRLICAASGSTFRVNAIGWYRQAPGKEREFVAAITGNAGSTYYADSVKGRFTISRDNAKNTVYLQMNSLKPEDTAVYYCAAGLPGYDGDYWGQGTQVTVSS | low polyreactivity
8 | QVQLVESGGGLVQPGGSLRLSCAASGFTFYLYALGWYRQAPVKERELVASISSGGRTYYADSVKGRFTISRDNAKNTVYVQMNRLKPADTAVYYCAARRPAWYWSAYRYYSEMDYWGQGTQVTVSS | high polyreactivity
9 | QVQLVESGGGLVQAGASLRLSCAASGSNFWFYAMGWYRQAPGKERELVAVISNSGSTYYADSVKGRFTFSRDNAQNTVYLQMNSLKAEDTAVYYCNKDGGGDSYWYDYWGQGTQVTVSS | low polyreactivity
10 | QVQLVESGGGLVQAGGSLRLSCAASGRTFTGYAMGWYRKAPGKERELVAAIRRTASTYYADSVKGRFTISRDNAKNTVYLQMNSLKPEDTAVYYCAVRAAHRGTYYYWGQGTQVTVSS | high polyreactivity
11 | QVQLVESGGGLVQAGGSLRLRCAASGIFAFYAMGWYRQAPGKERELVAGIDDGGSTDYADSVKGRFTISRDNAKNTVYLQMNSLKPEDTAVYYCAATERLEVWSRPYVWVTLDYRGQGTQVTVSS | low polyreactivity
12 | QVQLVESGGGLVQAGGSLRLSCAASGSIFEQNAMGWYRQAPGKERELVAAITWSGDSTYYADSVKGRFTISRDNAKNTVYLQMNSLKPEDTAVYYCAKEFGGTKRYGWYNYWGQGTQVTVSS | low polyreactivity
13 | QVQLVESGGGLVQAGGSLRLSCAASGRTYFTNAMGWYRQAPGKERELVAAITGSGGSTSYADSVKVRFTISRDNAKNTVYLQMNSLKPEDTAVYYCAAEWQELEYVYWGQGTQVTVSS | low polyreactivity
14 | QVQLVESGGGLVQAGGSLRLSCAASGFTFRGYAMGWYRQAPGKERELVAAITWSGGSTYYADSVKGRFTISRDNAKYTVYLQMNSLKPEDTAVYYCNAYYASGYRQYDYWGQGTQVTVSS | high polyreactivity
15 | QVQLVESGGGLDQAGGSLRLSCAASGRTFYVYGMGWSRQAPGKERELVAAIRSSGGSTYADSVKGRFTISRDNAKKTVYLQMNSLKPEDTAVDYCAADRRYAESGYYWGQGTQVTVSS | high polyreactivity
16 | QVQLVESAAGLFQAGGRLRLSCAASGRICGFYAKGWYTQAPGKQRDLVAAITVSGSSTRYADSVKGRFTISRDNAKNTVYLQMNSLKPEDTAVYYCAARIRAKYSYGYWGQVTQVTVSS | high polyreactivity
17 | QVQLVESGGGLVQAGGSLRLSCAASGRIFVKNAMGWYRQAPGKERELVAAISSGSSTNYADSVKGRFTISRDNAKNTVYLQMNSLKPEDTAVYYCAARQAQWDDYWGQGTQVTVSS | high polyreactivity
18 | QVQLQESGGVLMQAGGNLRLSFPASGYISTHYDMDWYRQAPGKERELVARIDDGAITNYADSVKGRFTISRDNAKNTVYLQMNSLKPEDTAVYYCAVYYGDDYYHDYWGQGTQVTVSS | low polyreactivity
19 | QVQLVESGGGLVQAGGSLRLSCAASGRIFITNAMGGYRQAPGKERELVASITVSGDSTYYADSVKGRFTISRDNAKNTVYLQMNSLKPEDTAVYYCAADYYALDKVLGYNYWGQGTQVTVSS | low polyreactivity
20 | QVQLVDSGGGLVQAGGSLRLSCAASGLTFSTYAKGWYRQAPGTERELVAVIRRTGSTYYADSVKGRFTISRDNAMNTVYLHMNGLKPEDNAVYYFATARRHVSGYDFWGQCTQVTVSS | high polyreactivity
21 | QVQLVESGGGLDQAGGSLRLSCAASGFTFTAYDMGWYRQAPGKVRELVAAINWSGSRTYYADSVKGRFTISRDNAKNTVYLQMNSLKPEDTAVYYCNTATSKSSYLHYDYWGQGTQVTVSS | high polyreactivity
22 | QVQLVESGGGLVQAGGSLRLSCAASGFTFARYTMGWYRQAPGKERELVAAISSRGSSTYYADSVKGRFTISRDNAKNTVYLQMNSLKRVDTAVYYCAAPPRYGYDYWGHGTQVTVSS | high polyreactivity

Row | Sequence | polyreactivity (PSR sort gate)
23 | QVQLVESGGGLVQAGGSLRLSCAASGRTFGYYAMGWYRQAPGKERELVAAISKSGGRTYYADSVKGRFTISRDNAKNTVYLQMNSLKPEDTAVYYCAADGGAIVPYYENYYWGQGTQVTVSS | high polyreactivity
24 | QVQLVESGGGLVQAGGSLRLSCAASGSIFQVYAMGWYRQAPGKERELVAAISGGGSSTYYADSVKGRFTISRDNAKNTVYLQMNSLKPEDTAVYYCAAAYSWYDNNRYDYWGQGTQVTVSS | low polyreactivity
25 | QVQLVESGGGLVQAGGSLRLSCAASGSIFPEYAMGWYRQAPGKERELVAAITTSGGSTYYADSVKGRFTISRDNAKNTVYLQMNSLKPEDTAVYYCAVEYLVYLDYTYDYWGQGTQVTVSS | low polyreactivity
26 | QVQLVESGGCLVQSGGRLRLSCAASGRIFYPYVMGWYRQAPGKEREFVAAITRSGGSTNADSVKGLFTISRDNAKNTVYLLLNSLKPEDTAVYYCARRVNRRYPFYQRDYWGQGTQVTVSS | high polyreactivity
27 | QVQLVESAGGLVQAGGSLRLSSAASGRTFIVYAMGWYRQARGKERELVAGITRGSTNYADSVKGRFTISRDNAKNTVYVQMNCLKPEDTAVYYCAARWQWLNGYYYWGQGTQVTVSS | high polyreactivity
28 | QVQLVESGGGLVQAGGSLRLSCAASGSIFGSNTMGWYRQAPGKEREFVAAISFSGGSTYYADSVKGRFTISRDNAKNTVYLQLNSLKPEDTAVYYWAARQSRVGTSFYYSRRDYWGQGTEVTVSS | high polyreactivity
29 | QVQLVESGGGLVQAGGSLRLSCAASGTIFYDNDMGLYRQAPGKERELVAAISWSASDTYYADSVKGRFTISRDNAKNTVFLQMMSLKPEDTAVYYCNAEVYEWYVVYSALDYWGQVTQVTVSS | low polyreactivity
30 | QVQLVESGGGLVQAGGSLRLSCAASGRTFYPYAMGWYRQAPGKERELVATITWSGTTTYYADSVKGRFTISRDNAKNTVYLQMNSLKPEDTAVYYCAADVWEVVTPYGTIDDDYWGQGTQVTVSS | high polyreactivity
31 | QVQLVESAGGLVQAGGSLRLSCGASGRIFYYNTMGWYRQAPGKERELVAAITTNGGSTYYADSVKGRFTISRDNAKNTVYLQMYSLKPEDTAVYYCNRDRYPYYYAYNYWGQGTQVTVSS | low polyreactivity
32 | QVQLVESGGGLVQAGGSLRLSSAASGFTFVSYAMGWYRQAPGKERELVASISKRGGTTYYADSVKGRFTISRDNAKKTVFLQMNSLKPDDTAVYYCNARDTRRYVTYDSGYDYWGQGTQVTVSS | high polyreactivity
33 | QVQLVESGGGLVQAGGSLRLSCAASGFIFETYVMGWYRQAPGKVRALVAAISGGGSTYYADSVKGRFTMSRDNAKNTVYLQMNSLKPEDTAVYYCAAGSWRARSYYHYYYWGQGTQVTVSS | high polyreactivity
34 | QVQLVESGGGLVQAGGSLRLSCAASGSIFSYYAMGWYRQAPGKERELVAAITVRGGSTYYADSVKGRFTISRDNAKNTVYLQMNSLKPEDTAVYYCAADWLDESFSYGPYYYWGQGTQVTVSS | low polyreactivity
35 | QVQLVETGGGLVQAGGSLRISCAASGRIFGVYAMGWYRQAPGKERELVAAITRGASTYYADSVKGRFTISRDNAKNTVYLQMNILKPEDTAVYYCAVSQYRGIYRKYDYWGQGTQVTVSS | high polyreactivity
36 | QVQLVESGGGLVQAGGSLRLSCSASGRIFFSYAMGWYRQAPGKERELVAAISRDGGTPYYADSVKGRFTISRDNAKNTVSLLLNSLKPEDTAVYYCADDWYLRRRIYGYWGQGTEVTVSS | high polyreactivity
37 | QVQLVESGGGLVQAGGSLRLSCAASGIIFPYSAMGWYRQAPGKERELVAAITSIDASTYYADSVKRRFTISRDNAKNTVYLHMNSLKPEDTAVYYCNATVFNLVLEYNYWGQGTQVTVSS | low polyreactivity
38 | QVQLVESGGGLVQAGGSLRLSCAASGFIFGYNGMGGYRQAPGKERELVAGITYSDGSTYYADSVKGRFTISRDNAKNTVYLQMNSLKPEDTAVYYCAVDVIYYWAEDYDYWGQGTQVTVSS | low polyreactivity
39 | QVQLVESGGGLVQAGGSLRLSCAASGITFTRNVMGWYRQAPGKERELVAAISGSGGSTYYADSVKGRFTISRDNAKNTFYLQMNSLKPEDTAVYYCAARSRGGRRYDYWGQGTQVTVSS | high polyreactivity
40 | QVQLVESGGGLVQAGGSLRLSCAASGRTFIYYAMGWYRQAPGKERELVATIRGSSTRTYYADSVKGRFTISRDNAKNTVYLQMNSLKPEDTAVYYCAARGTSRKYYYWGQGTQVTVSS | high polyreactivity
41 | QVQVVETGGGLVQAGGSLRLSCAPSGITFVTYAMGWYRQAPGKERELVAAISRSGGRTYYADSVNVRFTISRDNAKNTVYLQMNSLKPEDTAVYYCAAERKNKYDYWGQGTQVTVSS | high polyreactivity
42 | QVQLVESGAGLVQAGGSLRLSCAASGRTFYNNAMGWYRQAPGKERELVAAISQRTGRTYYADSVKGRFTISRDNAKNTVYLQMNSLKPEDTAVYYCAARTLSYEYNYWGQGTQVTVSS | high polyreactivity
43 | QVQLVESGGGLVQAGGRLRLSCAASGRTFTYNAMGWYRQAPGKERELFAAISNTGSTYYADSLKGRFTISRDNAKNTVYLQMNSLKPEDTAVYYCAADRAEFRQDDDPGESNYWGQGTQVTVSS | low polyreactivity
